Laboratory results: patent US20140072613A1, “Compositions and Methods for Treating Cutaneous Scarring” (priority 2012, published 2014)

What was measured:
Experiment in all cases: cell-based or functional assay
Tie2(h) (human) = Tie2(h) (human) (UniProt Q02763)
6SK3β(h) (human) = 6SK3β(h) (human) (UniProt P49841)
EphA4(h) (human) = EphA4(h) (human) (UniProt P54764)
SIK(h) (human) = SIK(h) (human) (UniProt P57059)
LIMK1(h) (human) = LIMK1(h) (human) (UniProt P53667)
Src(T341M)(h) (human) = Src(T341M)(h) (human) (UniProt P12931)
IRR(h) (human) = IRR(h) (human) (UniProt P14616)
Chain of IRR(h) (human) (P14616 960-1297 limits assumed): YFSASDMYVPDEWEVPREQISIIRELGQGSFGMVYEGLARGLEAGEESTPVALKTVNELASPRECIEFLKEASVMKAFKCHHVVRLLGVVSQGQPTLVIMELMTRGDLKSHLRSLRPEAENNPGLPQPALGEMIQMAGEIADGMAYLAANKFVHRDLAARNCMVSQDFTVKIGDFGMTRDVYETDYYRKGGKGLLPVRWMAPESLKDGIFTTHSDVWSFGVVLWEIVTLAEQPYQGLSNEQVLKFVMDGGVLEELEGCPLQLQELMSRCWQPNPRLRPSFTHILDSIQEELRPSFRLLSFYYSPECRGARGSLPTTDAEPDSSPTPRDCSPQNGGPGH

TAO2(h) (human) = biological target: T1, TAO2(h) (human) (UniProt Q9UL54)
T1 sequence (looked up): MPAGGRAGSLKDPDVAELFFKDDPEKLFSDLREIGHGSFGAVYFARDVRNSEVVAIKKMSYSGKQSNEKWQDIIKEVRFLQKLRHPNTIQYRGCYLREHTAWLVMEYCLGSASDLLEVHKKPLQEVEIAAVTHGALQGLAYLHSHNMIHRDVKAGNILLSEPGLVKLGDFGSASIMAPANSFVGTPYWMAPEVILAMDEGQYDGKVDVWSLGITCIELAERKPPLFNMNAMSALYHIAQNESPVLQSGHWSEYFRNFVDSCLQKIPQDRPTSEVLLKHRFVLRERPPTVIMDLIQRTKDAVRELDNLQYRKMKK

ULK3(h) (human) = biological target: T2, ULK3(h) (human) (UniProt Q6PHR2)
T2 sequence (looked up): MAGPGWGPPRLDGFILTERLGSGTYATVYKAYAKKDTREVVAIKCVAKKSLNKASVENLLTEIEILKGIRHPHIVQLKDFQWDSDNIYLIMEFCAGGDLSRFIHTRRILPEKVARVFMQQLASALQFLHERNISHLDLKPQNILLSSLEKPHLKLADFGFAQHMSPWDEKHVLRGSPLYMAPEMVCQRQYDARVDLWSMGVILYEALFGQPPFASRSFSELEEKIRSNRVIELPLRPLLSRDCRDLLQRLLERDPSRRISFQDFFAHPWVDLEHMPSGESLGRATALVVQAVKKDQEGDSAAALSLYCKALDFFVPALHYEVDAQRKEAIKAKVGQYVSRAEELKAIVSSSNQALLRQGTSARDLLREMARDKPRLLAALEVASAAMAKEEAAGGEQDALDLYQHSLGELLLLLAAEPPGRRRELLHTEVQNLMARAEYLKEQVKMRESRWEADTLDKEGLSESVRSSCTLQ

ROCK-I(h) (human) = ROCK-I(h) (human) (UniProt Q13464)
Met(D1246N)(h) (human) = Met(D1246N)(h) (human) (UniProt P08581)
Abl(Y253F)(h) (human) = Abl(Y253F)(h) (human) (UniProt P00519)
Chain of Abl(Y253F)(h) (human) (P00519 27-1130 Y253F limits assumed): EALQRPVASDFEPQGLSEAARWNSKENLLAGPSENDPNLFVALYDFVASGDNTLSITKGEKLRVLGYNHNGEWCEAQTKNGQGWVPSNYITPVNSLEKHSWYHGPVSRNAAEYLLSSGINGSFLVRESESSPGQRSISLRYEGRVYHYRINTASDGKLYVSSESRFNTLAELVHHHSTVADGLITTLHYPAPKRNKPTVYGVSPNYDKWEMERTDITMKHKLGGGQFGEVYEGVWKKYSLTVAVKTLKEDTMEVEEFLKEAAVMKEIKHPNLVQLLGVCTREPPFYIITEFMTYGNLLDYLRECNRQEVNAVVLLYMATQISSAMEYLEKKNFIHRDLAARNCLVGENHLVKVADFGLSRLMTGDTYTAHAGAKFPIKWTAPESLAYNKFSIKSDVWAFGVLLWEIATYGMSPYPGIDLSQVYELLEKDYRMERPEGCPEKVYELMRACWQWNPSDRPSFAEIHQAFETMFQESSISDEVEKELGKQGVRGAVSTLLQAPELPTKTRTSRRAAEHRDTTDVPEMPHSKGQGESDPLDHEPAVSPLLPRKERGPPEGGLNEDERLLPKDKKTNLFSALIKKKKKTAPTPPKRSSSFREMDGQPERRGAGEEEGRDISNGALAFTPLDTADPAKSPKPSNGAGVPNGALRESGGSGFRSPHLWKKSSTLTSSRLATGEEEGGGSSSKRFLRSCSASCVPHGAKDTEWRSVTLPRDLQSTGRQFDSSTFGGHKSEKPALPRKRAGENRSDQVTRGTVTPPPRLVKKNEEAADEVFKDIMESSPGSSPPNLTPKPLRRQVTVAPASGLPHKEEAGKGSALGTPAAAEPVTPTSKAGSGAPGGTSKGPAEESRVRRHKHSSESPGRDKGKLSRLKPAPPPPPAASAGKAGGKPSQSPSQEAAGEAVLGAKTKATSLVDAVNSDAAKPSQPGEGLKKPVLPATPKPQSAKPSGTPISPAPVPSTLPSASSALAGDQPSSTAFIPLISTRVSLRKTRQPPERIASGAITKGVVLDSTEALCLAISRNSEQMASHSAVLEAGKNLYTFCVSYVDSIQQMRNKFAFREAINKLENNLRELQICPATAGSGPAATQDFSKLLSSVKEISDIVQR

ROCK-II(h) (human) = ROCK-II(h) (human) (UniProt O75116)
Chain of ROCK-II(h) (human) (O75116 11-552 limits assumed): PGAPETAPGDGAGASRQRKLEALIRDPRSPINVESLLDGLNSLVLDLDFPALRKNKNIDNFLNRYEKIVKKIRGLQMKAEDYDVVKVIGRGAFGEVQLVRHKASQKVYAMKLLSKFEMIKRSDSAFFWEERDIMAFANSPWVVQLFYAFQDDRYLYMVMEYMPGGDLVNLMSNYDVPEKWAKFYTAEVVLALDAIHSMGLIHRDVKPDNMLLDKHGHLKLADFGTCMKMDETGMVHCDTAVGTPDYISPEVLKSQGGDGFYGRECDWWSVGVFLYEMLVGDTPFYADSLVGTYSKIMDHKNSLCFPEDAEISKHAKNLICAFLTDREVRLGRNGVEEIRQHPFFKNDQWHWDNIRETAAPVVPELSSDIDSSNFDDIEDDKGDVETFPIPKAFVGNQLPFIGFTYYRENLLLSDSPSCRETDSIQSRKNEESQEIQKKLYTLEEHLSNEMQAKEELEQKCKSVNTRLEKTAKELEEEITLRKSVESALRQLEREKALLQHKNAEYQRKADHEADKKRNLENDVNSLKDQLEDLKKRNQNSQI

SAPK4(h) (human) = biological target: T3, SAPK4(h) (human) (UniProt O15264)
T3 sequence (looked up): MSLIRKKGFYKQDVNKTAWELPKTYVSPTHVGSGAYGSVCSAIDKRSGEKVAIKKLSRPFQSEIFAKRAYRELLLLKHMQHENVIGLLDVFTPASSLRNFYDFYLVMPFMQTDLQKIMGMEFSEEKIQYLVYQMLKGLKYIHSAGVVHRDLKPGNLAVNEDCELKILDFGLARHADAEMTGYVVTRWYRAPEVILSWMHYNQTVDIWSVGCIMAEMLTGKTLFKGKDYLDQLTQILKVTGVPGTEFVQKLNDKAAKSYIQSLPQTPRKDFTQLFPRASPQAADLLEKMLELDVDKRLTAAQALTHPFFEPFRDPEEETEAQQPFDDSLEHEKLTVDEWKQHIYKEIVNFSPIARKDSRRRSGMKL

Ret(V804L)(h) (human) = biological target: T4, Ret(V804L)(h) (human) (UniProt P07949)
T4 sequence (looked up): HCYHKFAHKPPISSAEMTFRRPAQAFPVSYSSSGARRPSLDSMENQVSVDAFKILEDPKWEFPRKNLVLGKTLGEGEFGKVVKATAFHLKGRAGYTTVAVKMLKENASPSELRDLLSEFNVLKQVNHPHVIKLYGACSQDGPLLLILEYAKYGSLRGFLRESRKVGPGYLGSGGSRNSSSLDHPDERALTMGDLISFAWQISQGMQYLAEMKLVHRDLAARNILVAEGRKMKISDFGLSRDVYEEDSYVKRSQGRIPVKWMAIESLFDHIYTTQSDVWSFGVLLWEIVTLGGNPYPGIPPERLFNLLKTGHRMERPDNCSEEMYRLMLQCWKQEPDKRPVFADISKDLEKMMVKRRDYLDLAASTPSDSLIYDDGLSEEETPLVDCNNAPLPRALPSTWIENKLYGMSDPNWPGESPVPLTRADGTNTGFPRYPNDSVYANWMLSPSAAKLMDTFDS

IRAK1(h) (human) = IRAK1(h) (human) (UniProt P51617)
Chain of IRAK1(h) (human) (P51617 194-712 limits assumed): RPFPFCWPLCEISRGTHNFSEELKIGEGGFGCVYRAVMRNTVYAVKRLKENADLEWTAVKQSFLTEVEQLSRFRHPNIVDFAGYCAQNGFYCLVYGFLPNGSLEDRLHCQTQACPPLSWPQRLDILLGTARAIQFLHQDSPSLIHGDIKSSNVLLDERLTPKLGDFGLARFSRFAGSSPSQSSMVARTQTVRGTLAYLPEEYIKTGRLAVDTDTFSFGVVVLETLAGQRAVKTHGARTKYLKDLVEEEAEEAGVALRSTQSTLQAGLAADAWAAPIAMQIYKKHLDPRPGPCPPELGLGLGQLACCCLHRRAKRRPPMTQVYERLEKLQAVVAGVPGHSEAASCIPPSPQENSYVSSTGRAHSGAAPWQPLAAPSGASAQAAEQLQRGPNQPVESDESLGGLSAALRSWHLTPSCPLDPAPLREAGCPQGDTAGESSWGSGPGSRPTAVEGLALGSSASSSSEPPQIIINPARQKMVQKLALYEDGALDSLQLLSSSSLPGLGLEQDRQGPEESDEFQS

CDK5/p35(h) (human) = CDK5/p35(h) (human) (UniProt Q00535)
MARK1(h) (human) = MARK1(h) (human) (UniProt Q9P0L2)
Chain of MARK1(h) (human) (Q9P0L2 whole entry): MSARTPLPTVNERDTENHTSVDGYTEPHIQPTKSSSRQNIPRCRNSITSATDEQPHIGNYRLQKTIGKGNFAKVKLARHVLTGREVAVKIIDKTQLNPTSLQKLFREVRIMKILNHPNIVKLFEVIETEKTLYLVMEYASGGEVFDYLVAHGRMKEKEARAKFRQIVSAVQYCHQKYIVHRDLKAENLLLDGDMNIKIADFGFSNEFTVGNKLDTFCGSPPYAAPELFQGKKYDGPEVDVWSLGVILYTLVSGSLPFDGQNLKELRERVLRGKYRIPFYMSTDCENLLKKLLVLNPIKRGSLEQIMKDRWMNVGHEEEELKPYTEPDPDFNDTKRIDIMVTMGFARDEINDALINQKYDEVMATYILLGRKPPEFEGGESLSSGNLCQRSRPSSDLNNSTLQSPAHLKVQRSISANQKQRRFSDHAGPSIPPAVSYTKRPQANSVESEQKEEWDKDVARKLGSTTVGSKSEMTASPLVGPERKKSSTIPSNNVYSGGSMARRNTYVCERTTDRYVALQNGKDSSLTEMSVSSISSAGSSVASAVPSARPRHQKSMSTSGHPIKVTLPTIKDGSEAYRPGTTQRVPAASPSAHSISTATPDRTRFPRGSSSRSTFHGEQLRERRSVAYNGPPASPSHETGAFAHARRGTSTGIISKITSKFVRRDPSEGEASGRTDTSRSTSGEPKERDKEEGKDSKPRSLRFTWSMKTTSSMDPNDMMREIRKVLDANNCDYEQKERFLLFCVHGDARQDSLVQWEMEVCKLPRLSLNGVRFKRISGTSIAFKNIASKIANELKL

FGFR1(h) (human) = FGFR1(h) (human) (UniProt P11362)
Chain of FGFR1(h) (human) (P11362 456-765 limits assumed): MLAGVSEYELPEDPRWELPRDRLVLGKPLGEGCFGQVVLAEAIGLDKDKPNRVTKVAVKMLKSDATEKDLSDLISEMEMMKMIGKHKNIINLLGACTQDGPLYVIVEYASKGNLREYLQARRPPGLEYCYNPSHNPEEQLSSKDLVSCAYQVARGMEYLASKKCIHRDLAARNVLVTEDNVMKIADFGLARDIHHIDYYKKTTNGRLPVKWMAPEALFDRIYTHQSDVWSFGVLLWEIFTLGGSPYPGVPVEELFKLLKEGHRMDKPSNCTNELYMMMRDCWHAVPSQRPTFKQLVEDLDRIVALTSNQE

Chain of 6SK3β(h) (human) (P49841 whole entry): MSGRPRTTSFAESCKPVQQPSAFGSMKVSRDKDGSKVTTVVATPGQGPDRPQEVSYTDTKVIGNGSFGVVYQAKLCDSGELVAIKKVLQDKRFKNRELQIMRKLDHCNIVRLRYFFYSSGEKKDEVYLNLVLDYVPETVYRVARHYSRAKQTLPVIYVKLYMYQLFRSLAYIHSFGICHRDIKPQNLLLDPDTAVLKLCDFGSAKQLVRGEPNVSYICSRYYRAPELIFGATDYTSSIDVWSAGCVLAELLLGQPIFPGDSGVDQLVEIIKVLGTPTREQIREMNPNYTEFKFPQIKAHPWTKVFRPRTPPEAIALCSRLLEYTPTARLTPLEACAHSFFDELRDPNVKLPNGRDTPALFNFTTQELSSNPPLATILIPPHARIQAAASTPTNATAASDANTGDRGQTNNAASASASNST
Chain of LIMK1(h) (human) (P53667 285-638 limits assumed): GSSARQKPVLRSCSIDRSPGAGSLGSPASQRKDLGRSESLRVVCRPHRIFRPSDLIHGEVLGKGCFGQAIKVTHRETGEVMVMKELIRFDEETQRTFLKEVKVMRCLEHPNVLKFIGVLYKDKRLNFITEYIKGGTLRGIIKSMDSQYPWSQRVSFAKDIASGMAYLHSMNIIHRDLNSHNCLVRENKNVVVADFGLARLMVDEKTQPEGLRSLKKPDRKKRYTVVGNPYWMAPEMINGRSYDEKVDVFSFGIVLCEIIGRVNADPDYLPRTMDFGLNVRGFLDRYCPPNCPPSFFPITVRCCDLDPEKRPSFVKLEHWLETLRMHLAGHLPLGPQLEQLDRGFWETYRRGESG
Chain of Tie2(h) (human) (Q02763 771-1124 limits assumed): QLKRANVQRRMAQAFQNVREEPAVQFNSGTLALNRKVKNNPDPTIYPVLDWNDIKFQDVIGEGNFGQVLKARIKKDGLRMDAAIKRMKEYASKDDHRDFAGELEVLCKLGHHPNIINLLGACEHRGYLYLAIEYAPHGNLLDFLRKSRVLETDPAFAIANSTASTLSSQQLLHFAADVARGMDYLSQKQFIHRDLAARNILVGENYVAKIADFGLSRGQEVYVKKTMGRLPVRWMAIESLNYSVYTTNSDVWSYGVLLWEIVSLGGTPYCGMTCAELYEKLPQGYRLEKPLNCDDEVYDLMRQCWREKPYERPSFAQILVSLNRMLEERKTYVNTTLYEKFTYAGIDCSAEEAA

% activity, 100 µM (Tie2(h) (human)): 22%
% activity, 100 µM (6SK3β(h) (human)): 238%
% activity, 100 µM (EphA4(h) (human)): 48%
% activity, 100 µM (SIK(h) (human)): 40%
% activity, 100 µM (LIMK1(h) (human)): 87%
% activity, 100 µM (Src(T341M)(h) (human)): 59%
% activity, 100 µM (IRR(h) (human)): 10%
% activity, 100 µM (TAO2(h) (human)): 15%
% activity, 100 µM (ULK3(h) (human)): 177%
% activity, 100 µM (ROCK-I(h) (human)): 17%
% activity, 100 µM (Met(D1246N)(h) (human)): 90%
% activity, 100 µM (Abl(Y253F)(h) (human)): 29%
% activity, 100 µM (ROCK-II(h) (human)): 2%
% activity, 100 µM (SAPK4(h) (human)): 48%
% activity, 100 µM (Ret(V804L)(h) (human)): 20%
% activity, 100 µM (IRAK1(h) (human)): 5%
% activity, 100 µM (CDK5/p35(h) (human)): 59%
% activity, 100 µM (MARK1(h) (human)): 110%
% activity, 100 µM (FGFR1(h) (human)): 18%
Substance: MMI-0500 (peptide)
